The target of the experiment is HIV-1 BaL envelope protein spike (Env) on virions (HIV-1 BaL strain). Nature of the experiment: cell-based or functional assay.

Among the data in patent publication US20150111814A1 are IC50, p24 leakage from fully infectious HIV-1 BaL (ELISA) values, retold here.

In turn, “DAVEI 8 (Dual Acting Virucidal Entry Inhibitor; cyanovirin-N-(Gly4Ser)8-His6-MPER fusion)” gave an IC50, p24 leakage from fully infectious HIV-1 BaL (ELISA) of 0.395 µM.
With “DAVEI 4 (Dual Acting Virucidal Entry Inhibitor; cyanovirin-N-(Gly4Ser)4-His6-MPER fusion)” the figure was 0.2 µM.
